Where a chain is given by its changes, count along the chain named. Names may count otherwise.
T1: sTLT1 (SEQ ID No: 3 with six histidine residues added at the C-terminus) (human, UniProt Q86YW5 16-162)
T1 construct: Soluble TLT-1 used in SPR
T1 sequence: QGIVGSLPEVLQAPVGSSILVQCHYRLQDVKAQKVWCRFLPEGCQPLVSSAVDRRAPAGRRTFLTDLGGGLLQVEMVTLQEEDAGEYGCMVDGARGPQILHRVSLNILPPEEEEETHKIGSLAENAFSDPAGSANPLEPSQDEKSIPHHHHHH

T2: recombinant human activated Factor VII (FVIIa) (human, UniProt P08709 61-212; P08709 213-466, Gla domain: ten glutamate residues may be gamma-carboxylated)
T2 construct: two-chain form after cleavage between Arg152 and Ile153; light chain (Gla, EGF domains) and heavy chain (protease domain) tethered by a disulfide bond; also called rFVIIa; human FVIIa
T2 sequence 1: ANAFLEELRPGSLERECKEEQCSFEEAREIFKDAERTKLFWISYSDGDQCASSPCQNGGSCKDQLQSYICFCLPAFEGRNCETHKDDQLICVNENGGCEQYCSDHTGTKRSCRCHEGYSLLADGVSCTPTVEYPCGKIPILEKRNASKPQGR
T2 sequence 2: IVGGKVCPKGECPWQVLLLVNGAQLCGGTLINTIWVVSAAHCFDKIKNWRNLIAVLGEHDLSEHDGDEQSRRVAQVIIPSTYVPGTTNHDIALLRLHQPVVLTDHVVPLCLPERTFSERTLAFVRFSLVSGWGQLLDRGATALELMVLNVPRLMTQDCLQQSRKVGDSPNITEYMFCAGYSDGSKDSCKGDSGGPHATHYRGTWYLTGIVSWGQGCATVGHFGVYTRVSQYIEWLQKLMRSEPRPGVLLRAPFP

T3: recombinant human activated FVII (FVIIa) (human, UniProt P08709 61-212; P08709 213-466, ten glutamate residues of the Gla domain may be gamma-carboxylated)
T3 construct: Two-chain form after cleavage between Arg152 and Ile153; light and heavy chain tethered by a disulfide bond; also called rFVIIa; Factor VIIa
T3 sequence 1: T2 sequence 1
T3 sequence 2: T2 sequence 2

B1: biAb0095 (bispecific antibody, human IgG4 S228P, kappa)
heavy 1: QVQLQESGPGLVKPSQTLSLTCTVSGYSISSDSAWSWIRQPPGKGLEWIGYIQYSGSTNYNPSLKSRVTISRDTSKNQFSLKLSSVTAADTAVYYCARSVNYYGNSFAVGYWGQGTLVTVSSASTKGPSVFPLAPCSRSTSESTAALGCLVKDYFPEPVTVSWNSGALTSGVHTFPAVLQSSGLYSLSSVVTVPSSSLGTKTYTCNVDHKPSNTKVDKRVESKYGPPCPPCPAPEFLGGPSVFLFPPKPKDTLMISRTPEVTCVVVDVSQEDPEVQFNWYVDGVEVHNAKTKPREEQFNSTYRVVSVLTVLHQDWLNGKEYKCKVSNKGLPSSIEKTISKAKGQPREPQVYTLPPSQEEMTKNQVSLTCLVKGFYPSDIAVEWESNGQPENNYKTTPPVLDSDGSFLLYSKLTVDKSRWQEGNVFSCSVMHEALHNHYTQKSLSLSLGK
light 1: EIVLTQSPATLSLSPGERATLSCRASQGISDYLHWYQQKPGEAPRLLIKYTSQPATGIPARFSGSGSGTDFTLTISSLEPEDFAVYYCQNGHSFPLTFGQGTKLEIKRTVAAPSVFIFPPSDEQLKSGTASVVCLLNNFYPREAKVQWKVDNALQSGNSQESVTEQDSKDSTYSLSSTLTLSKADYEKHKVYACEVTHQGLSSPVTKSFNRGEC
heavy 2: not shown
light 2: DIVMTQTPLSSPVTLGQPASISCRSSQSLVHRNGNTYFHWLQQRPGQPPRLLIYKVSNRFSGVPDRFSGSGAGTDFTLKISRVEAEDVGVYYCSQSTHVPYTFGQGTKLEIKRTVAAPSVFIFPPSDEQLKSGTASVVCLLNNFYPREAKVQWKVDNALQSGNSQESVTEQDSKDSTYSLSSTLTLSKADYEKHKVYACEVTHQGLSSPVTKSFNRGEC
notes: Duobody, constant domain type H (IgG4): anti-FVII(a) arm mAb0865, anti-TLT-1 arm mAb1047; also called mAb0865 x mAb1047
B2: biAb0015 (bispecific antibody, human IgG4 S228P, kappa)
heavy 1: B1 heavy 1
light 1: B1 light 1
heavy 2: not shown
light 2: B1 light 2 with N33P
notes: Duobody, constant domain type H (IgG4): anti-FVII(a) arm mAb0865, anti-TLT-1 arm mAb1038; also called mAb0865 x mAb1038
B3: biAb0001 (bispecific antibody, human IgG4 S228P, kappa)
heavy 1: B1 heavy 1
light 1: B1 light 1
heavy 2: not shown
light 2: B1 light 2 with N33Q
notes: Duobody, constant domain type H (IgG4): anti-FVII(a) arm mAb0865, anti-TLT-1 arm mAb1076; also called anti-FVII(a)/anti-TLT-1 bispecific antibody; mAb0865 x mAb1076
B4: biAb0090 (bispecific antibody, human IgG4 S228P, kappa)
heavy 1: B1 heavy 1
light 1: B1 light 1
heavy 2: not shown
light 2: B1 light 2
notes: Duobody, constant domain type H (IgG4): anti-FVII(a) arm mAb0865, anti-TLT-1 arm mAb1049; also called mAb0865 x mAb1049
B5: mAb0048 (antibody, human IgG4 S228P, kappa, V domains shown)
VH: DVQLQESGPGLVEPSQSLSLTCTVTGYSITSDCAWSWIRQFPGNKLEWMGYINYSGSTNYNPSLKSRISVTRDTSKNQFFLRLSSVTAEDTATYYCTRSVNYYGNSFAVGYWGQGTSVTVSS
VL: DIVMTQSPATLSVTAGDRVSLSCRASQGISDYLHWYQQKSHESPRLLIKYTSQPVSGIPSRFSGSGSGSEFTLSINSVEPEDVGVYYCQNGHSFPLTFGAGTKLELKR
notes: murine variable domains, human IgG4 S228P constant domain (type A), human kappa; also called 11F2 murine/human chimera
B6: biAb0099 (bispecific antibody, human IgG4 S228P, kappa)
heavy 1: B1 heavy 1 with Q1D, A108W, G110D, Y111P
light 1: DIVMTQSPATLSVTAGDRVSLSCRASQGISDYLHWYQQKSHESPRLLIKYTSQPVSGIPSRFSGSGSGSEFTLSINSVEPEDVGVYYCQNGHSFPLTFGAGTKLELKRTVAAPSVFIFPPSDEQLKSGTASVVCLLNNFYPREAKVQWKVDNALQSGNSQESVTEQDSKDSTYSLSSTLTLSKADYEKHKVYACEVTHQGLSSPVTKSFNRGEC
heavy 2: not shown
light 2: B1 light 2
notes: Duobody, constant domain type H (IgG4): anti-FVII(a) arm mAb0873, anti-TLT-1 arm mAb1047; also called mAb0873 x mAb1047
B7: biAb0014 (bispecific antibody, human IgG4 S228P, kappa)
heavy 1: B1 heavy 1 with Q1D, A108W, G110D, Y111P
light 1: B6 light 1
heavy 2: not shown
light 2: B1 light 2 with N33Q
notes: also called mAb0873 x mAb1076
B8: biAb0094 (bispecific antibody, human IgG4 S228P, kappa)
heavy 1: B1 heavy 1 with Q1D, A108W, G110D, Y111P
light 1: B6 light 1
heavy 2: not shown
light 2: B1 light 2
notes: Duobody, constant domain type H (IgG4): anti-FVII(a) arm mAb0873, anti-TLT-1 arm mAb1049; also called mAb0873 x mAb1049
B9: biAb0019 (bispecific antibody, human IgG4 S228P, kappa)
heavy 1: B1 heavy 1 with Q1D, A108W, G110D, Y111P
light 1: B6 light 1
heavy 2: not shown
light 2: B1 light 2 with N33P
notes: also called mAb0873 x mAb1038

target: T1, sTLT1 (SEQ ID No: 3 with six histidine …); experiment: KD (TLT-1) listed for the biAbs of Example 30 (SPR value of Table 21)
Description: (§1) Binding of sTLT1 (corresponding to SEQ ID No: 3 with six histidine residues added at the C-terminus) to biAb from (Example 4) was probed by surface plasmon resonance (Biacore T200) at 25° C. Anti-human IgG was immobilised on a CM5 sensor chip (both supplied by GE Healthcare) using standard amine coupling chemistry. Purified biAbs according to Table 21 (1 nM) were injected at a flow rate of 10 μl/min for 1 min. Subsequently, sTLT1, between 0 and 60 μM, were injected at a flow rate of […] for 3 min to allow for binding to the biAb followed by a 3 min buffer injection allowing for dissociation from the biAb. The running buffer was prepared by diluting 10-fold the 10×HBS-P buffer (supplied by GE Healthcare) and supplemented with 1 mg/ml BSA and 5 mM CaCl₂) to give 10 mM HEPES, 150 mM NaCl, 0.05% v/v Polysorbate 20, pH 7.4, 5 mM CaCl₂), 1 mg/ml bovine serum albumin (BSA). The running buffer was also used for dilution of biAb and sTLT1 samples. Regeneration of the chip was achieved using recommended regeneration buffer consisted of 3M MgCl2 (supplied by GE Healthcare). Binding data were analysed according to a 1:1 model using BiaEvaluation 4.1 supplied by the manufacturer (Biacore AB, Uppsala, Sweden).

| Kd | Binder |
| --- | --- |
| 75 nM | B1 |
| 19 nM | B2 |
| 2.9 nM | B3 |
| 320 nM | B4 |

target: T2, recombinant human activated Factor VII …; experiment: SPR (Biacore T200), captured antibody, FVIIa injected at 5-135 nM, 1:1 model
Description: Anti-murine IgG (by GE Healthcare) was immobilised on a CM4 sensor chip using standard amine coupling chemistry kit (both supplied by GE Healthcare). […] The running buffer was prepared by diluting 10-fold the 10×HBS-P buffer (supplied by GE Healthcare) and supplemented with 1 mg/ml BSA and 5 mM CaCl₂) to give 10 mM HEPES, 150 mM NaCl, 0.05% v/v Polysorbate 20(P20), pH 7.4, 5 mM CaCl₂), 1 mg/ml bovine serum albumin (BSA). […] Regeneration of the chip was achieved using regeneration buffer consisting of 10 mM Gly-HCl pH 1.7 (supplied by GE Healthcare). Binding data were analysed according to a 1:1 model using BiaEvaluation 4.1 supplied by the manufacturer (Biacore AB, Uppsala, Sweden).

| Kd | Binder |
| --- | --- |
| 0.029 nM | B5 |

target: T3, recombinant human activated FVII (FVIIa); experiment: dissociation constant listed with the stimulatory activities; value of the anti-FVII(a) arm mAb0873

| Kd | Binder |
| --- | --- |
| 600 nM | B6 |
| 600 nM | B7 |
| 600 nM | B8 |
| 600 nM | B9 |

target: T3, recombinant human activated FVII (FVIIa); experiment: cell-based or functional assay

| Stimulation (fold): FXa generated by FVIIa with lipidated TLT-1 and 100 nM biAb, relative to free FVIIa | Binder |
| --- | --- |
| 29.2 fold | B3 |

target: T3, recombinant human activated FVII (FVIIa); experiment: dissociation constant listed with the stimulatory activities (SPR)

| Kd | Binder |
| --- | --- |
| 0.06 nM | B1 |
| 0.06 nM | B2 |
| 0.06 nM | B3 |
| 0.06 nM | B4 |

target: T1, sTLT1 (SEQ ID No: 3 with six histidine …); experiment: as above

| Kd | Binder |
| --- | --- |
| 75 nM | B1 |
| 19 nM | B2 |
| 2.9 nM | B3 |
| 320 nM | B4 |

target: T1, sTLT1 (SEQ ID No: 3 with six histidine …); experiment: dissociation constant listed with the stimulatory activities; value of the anti-TLT-1 arm

| Kd | Binder |
| --- | --- |
| 75 nM | B6 |
| 2.9 nM | B7 |
| 320 nM | B8 |
| 19 nM | B9 |

target: T2, recombinant human activated Factor VII …; experiment: cell-based or functional assay

| AT inhibition (kinh %) | Binder |
| --- | --- |
| 109% | B5 |

target: T1, sTLT1 (SEQ ID No: 3 with six histidine …); experiment: SPR, Biacore T200, 25 C; biAb captured on anti-human IgG, sTLT1 injected; 1:1 model
Description: as §1

| Kd | Binder |
| --- | --- |
| 75 nM | B1 |
| 19 nM | B2 |
| 2.9 nM | B3 |
| 320 nM | B4 |

target: T3, recombinant human activated FVII (FVIIa); experiment: cell-based or functional assay; remark: another data set of the same source

| Stimulation (fold): FXa generated by FVIIa with lipidated TLT-1 and 100 nM biAb, relative to free FVIIa | Binder |
| --- | --- |
| 13.9 fold | B1 |
| 5.8 fold | B6 |
| 18.7 fold | B2 |
| 8 fold | B7 |
| 5.4 fold | B8 |
| 29.2 fold | B3 |
| 11.1 fold | B4 |
| 9.4 fold | B9 |
